{"source": "the nanobody polyreactivity screen of Harvey et al. (2022)", "test": "yeast display, Sf9 membrane polyspecificity reagent, FACS + sequencing; frameworks hold sequencing errors", "summary_of_the_method": "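After 36–48 hours of galactose induction, yeast (Saccharomyces cerevisiae BJ5465) displaying a synthetic nanobody library were stained at 4 °C for 1 hour with 10% biotinylated, detergent-solubilized Sf9 membrane reagent. Streptavidin microbeads enriched the stained cells before FACS sorting into low and high (top ~1%) gates on anti-HA and streptavidin fluorescence. Each clone's polyreactivity label reflects its gate of origin.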", "data": [{"sequence": "QVQLVESGGGLVQAGGSLRLSCAASGSISQTYAMGWYRQAPGKERELVAAISSSGASTYYADSVKGRFTISRDNAKNTVYLQMNCLKPEDTAVYYCAALGRYRYIYNYWGQGTQVTVSS", "values": [{"measurement": "polyreactivity (PSR sort gate)", "value": "high polyreactivity"}]}, {"sequence": "QVQLVESGGGLVQAGGSLRLSCAASGSISRYAMGWSRQAPGKERELVAAITRSGGSTHYADSVKGRFTISRDNAKNTVYLQMNSLKPEDTAVYYCATRYYRGVIRYPYDSWGQGTQVTVSS", "values": [{"measurement": "polyreactivity (PSR sort gate)", "value": "high polyreactivity"}]}, {"sequence": "QVQLVESGGGLVQAGGSLRLSCAASGSISSGYFMGWYRQAPGKERELVAAISFSGGSTYYADSVKGRFTISRDNAKNTVYLQMNSLKPEDTAVYYCNALFWYRYFSGVSQDYDYWGQGTQVTVSS", "values": [{"measurement": "polyreactivity (PSR sort gate)", "value": "high polyreactivity"}]}, {"sequence": "QVQLVESGGGLVQAGGSLRLSCAASGSISSKNSMGWYRQAPGKEREFVAVISGTGGSTYYSDSVKGRFTISRDIAKNTVYLQMNSLKPEDTAVYYCAADFPWSTKSWHPDSGDSWGQGTQVTVSS", "values": [{"measurement": "polyreactivity (PSR sort gate)", "value": "low polyreactivity"}]}, {"sequence": "QVQLVESGGGLVQAGGSLRLSCAASGSISTFYAMGWYRQAPGKEREFVAAISTRDGTTRYADSVKGRFTISRDNAKNTVYLQMNSLKPEDTAVYYCAAKGGGVWLYARIYSDYYWGQGTQVTVSS", "values": [{"measurement": "polyreactivity (PSR sort gate)", "value": "low polyreactivity"}]}, {"sequence": "QVQLVESGGGLVQAGGSLRLSCAASGSISTPYTMGWYRQAPGKERELVADISWIGDTTSYADSVKGRFTISRDNAKNTVYLLMNSLKPEDTAVYYCNAEHRGYEYWGQGTQVTVSS", "values": [{"measurement": "polyreactivity (PSR sort gate)", "value": "low polyreactivity"}]}, {"sequence": "QVQLVESGGGLVQAGGSLRLSCAASGSISTWYAMGWYRQAPGKERELVAAINSGDSTYYADSVKGRFTISRDNAKNTVYLQMNSLKPEDTAVYYCAASSYSSKPFDYWGQGTQVTVSS", "values": [{"measurement": "polyreactivity (PSR sort gate)", "value": "high polyreactivity"}]}, {"sequence": "QVQLVESGGGLVQAGGSLRLSCAASGSISTYYAMGWYRQAPGKERELVAAITRNGGSTYYADSVKGRFTISRDNSKNTVYLQMNSLKPEDTAVYYCAARNAFGTYYYWGQGTQVTVSS", "values": [{"measurement": "polyreactivity (PSR sort gate)", "value": "high polyreactivity"}]}, {"sequence": "QVQLVESGGGLVQAGGSLRLSCAASGSISVANAMGWYRQAPGKERELVAAITDSGDDTYYADSVKGRFTISRDNAKNTVYLQMNSLKPEDTAVYYCAVEAWSVPPYDYWGQGTIVTVSS", "values": [{"measurement": "polyreactivity (PSR sort gate)", "value": "low polyreactivity"}]}, {"sequence": "QVQLVESGGGLVQAGGSLRLSCAASGSISYFNAMGWYIQAPGKERELVAAISRGATTYADSVKGRFTISRDNAKNTVYLQMNSLKPEDTAVYYCNAGLRGNIRKSYRYDSWGQGTQVTVSS", "values": [{"measurement": "polyreactivity (PSR sort gate)", "value": "high polyreactivity"}]}, {"sequence": "QVQLVESGGGLVQAGGSLRLSCAASGSISYFNAMGWYRPAPGKERELVAAITSGGSTYYADSVKGRFTISRDNAKNTVYLQMTSLKPEDTAVYYCNAPLEWGVYAAQNWDDGYWGQGTQVTVSS", "values": [{"measurement": "polyreactivity (PSR sort gate)", "value": "low polyreactivity"}]}, {"sequence": "QVQLVESGGGLVQAGGSLRLSCAASGSISYFNAMGWYRQAPGKERELVAAITSGGSTYYADSVKGRFTISLDNAKNTVYLQMNSLKPEDTAVYYCNAPLEWGVYAAQNWDDGYWGQGTQVTVSS", "values": [{"measurement": "polyreactivity (PSR sort gate)", "value": "low polyreactivity"}]}, {"sequence": "QVQLVESGGGLVQAGGSLRLSCAASGSISYFNDMGWYRQAPGKERELVAAIRDSGGITYADSVKGRFTISRDNAKNTVYLQMNSLKPEDTAVYYCATYGNEIYDYWGLGTQVTVSS", "values": [{"measurement": "polyreactivity (PSR sort gate)", "value": "low polyreactivity"}]}, {"sequence": "QVQLVESGGGLVQAGGSLRLSCAASGSISYFYAMGWYRQAPGKERELVAAINSGDDTYADSVKGRFTISRDNAKNTVYLQMNSLKPEDTAVYYCAVKYGGYESHYYRRPHYDYWGQGTQVTVSS", "values": [{"measurement": "polyreactivity (PSR sort gate)", "value": "low polyreactivity"}]}, {"sequence": "QVQLVESGGGLVQAGGSLRLSCAASGSISYIYTMGWDRQAPGKQRELVAAMSGSGSTYYADSVKGRFTISRDNAKNTVYLQMNSLKQEDTAVHYCNAGSGGLNFQEVPHGYDYWGQGTQVTVSS", "values": [{"measurement": "polyreactivity (PSR sort gate)", "value": "low polyreactivity"}]}, {"sequence": "QVQLVESGGGLVQAGGSLRLSCAASGSISYKYAMGWYRQAPGKERELVAAISSSGGRTYYADSVKGRFTISRDNAKNTVYLQMNSLKPEDTAVYYCNADVLFYTYYTRGRFDFDYWGQGTQVTVSS", "values": [{"measurement": "polyreactivity (PSR sort gate)", "value": "low polyreactivity"}]}, {"sequence": "QVQLVESGGGLVQAGGSLRLSCAASGSISYVNAMGWYRQAPGKERELVAAITGGGSTNYADSVKGRFTISRDNAKNTVYLQMNSLKPEDTAVYYCAADADTDVVYILQEYDYWGQGTQVTVSS", "values": [{"measurement": "polyreactivity (PSR sort gate)", "value": "low polyreactivity"}]}]}
